US20210269790A1

Molecular target: FKBP12-Gag^HIV fusion protein (FKBP12 domain added to the N-terminal of Gag of HIV) (human immunodeficiency virus (HIV))
Experiment: cell-based or functional assay
Details: scale: times

Substance: luciferase protein fused with an FRB domain (FRB-Luc) (from UniProt P42345 2021-2113)
- luciferase activity in HEK293T cells 16 hours after introduction of VLPs: 12
